The supplement of paper PMC9233669
Fewer inactive variants are shown than the library holds.

What was measured:
biotinyl-Phe-oxazolone = assay: self-aminoacylation, catalytic enhancement (BFO) (fold over background); higher = more active; k-Seq, kA / k0A0; sequences stand for … in GGGAAUGGAUCCACAUCUACGAAUUC…UUCACUGCAGACUUGACGAAGCUG
Procedure, shortened: (§1)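 The uncatalyzed rate is the low-activity peak of a bimodal Gaussian fit, and catalytic enhancement is median kA divided by it. The kA values came from pseudo-first-order fits, with 1000 bootstraps, of per-sequence fraction reacted measured by streptavidin capture, triplicate qPCR and Illumina sequencing. Mutagenized RNA pools with a 21-nt variable region (0.43 μM) were reacted with each biotinyl-aminoacyl-oxazolone at 2–1250 μM in 50 μL HEPES/NaCl/KCl/MgCl2/CaCl2 buffer with 5% acetonitrile, pH 6.9–7.0, for 90 minutes at room temperature.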

biotinyl-Trp-oxazolone = assay: self-aminoacylation, catalytic enhancement (BWO) (fold over background); higher = more active; k-Seq, kA / k0A0; sequences stand for … in GGGAAUGGAUCCACAUCUACGAAUUC…UUCACUGCAGACUUGACGAAGCUG
Procedure, shortened: as §1

biotinyl-Met-oxazolone = assay: self-aminoacylation, catalytic enhancement (BMO) (fold over background); higher = more active; k-Seq, kA / k0A0; sequences stand for … in GGGAAUGGAUCCACAUCUACGAAUUC…UUCACUGCAGACUUGACGAAGCUG
Procedure, shortened: as §1

biotinyl-Val-oxazolone = assay: self-aminoacylation, catalytic enhancement (BVO) (fold over background); higher = more active; k-Seq, kA / k0A0; sequences stand for … in GGGAAUGGAUCCACAUCUACGAAUUC…UUCACUGCAGACUUGACGAAGCUG
Procedure, shortened: as §1

biotinyl-Leu-oxazolone = assay: self-aminoacylation, catalytic enhancement (BLO) (fold over background); higher = more active; k-Seq, kA / k0A0; sequences stand for … in GGGAAUGGAUCCACAUCUACGAAUUC…UUCACUGCAGACUUGACGAAGCUG
Procedure, shortened: as §1

biotinyl-Ile-oxazolone = assay: self-aminoacylation, catalytic enhancement (BIO) (fold over background); higher = more active; k-Seq, kA / k0A0; sequences stand for … in GGGAAUGGAUCCACAUCUACGAAUUC…UUCACUGCAGACUUGACGAAGCUG
Procedure, shortened: as §1

Sequence	self-aminoacylation (biotinyl-Phe-oxazolone)	self-aminoacylation (biotinyl-Trp-oxazolone)	self-aminoacylation (biotinyl-Met-oxazolone)	self-aminoacylation (biotinyl-Val-oxazolone)	self-aminoacylation (biotinyl-Leu-oxazolone)	self-aminoacylation (biotinyl-Ile-oxazolone)
AAAACCCUGGUCAUCGAGUGA [Fam2.1 aminoacylation ribozyme variant]	462	73.3	66.9	26.3	65.1	26.8
AAACACCUAGGUCAUCGGGUG [Fam2.2 aminoacylation ribozyme variant]	23.9	4.7	2.46	3.09	3.04	3.41
AAACUUGCUAAUAGUCGCAAG [Fam3.1 aminoacylation ribozyme variant]	2.21	4.6	1.76	1.97	1.29	2.62
AAAUGUGCUAAUAGUCGCAAG [Fam3.1 aminoacylation ribozyme variant]	2.84	1.48	2.16	1.46	1.53	2.12
AAAUUGGCUAAUAGUCGCAAG [Fam3.1 aminoacylation ribozyme variant]	2.72	3.11	1.84	2.05	2.05	2.32
AAAUUUGCUAAGAGUCGCAAG [Fam3.1 aminoacylation ribozyme variant]	2.61	2.51	–	–	–	2.05
AAAUUUGCUAAUAGUCGCAAA [Fam3.1 aminoacylation ribozyme variant]	2.95	3.82	3.08	2.41	3.17	3.32
AAAUUUGCUAAUAGUCGCAGG [Fam3.1 aminoacylation ribozyme variant]	2.3	3.16	2.11	1.79	2.47	1.97
AAAUUUGUUAAUAGUCGCAAG [Fam3.1 aminoacylation ribozyme variant]	2.69	1.76	2.04	1.59	1.99	2.11
AACAUUGCUAAUAGUCGCAAG [Fam3.1 aminoacylation ribozyme variant]	2.9	2.67	–	–	–	2.5
AACUAUGCUAAUAGUCGCAAG [Fam3.1 aminoacylation ribozyme variant]	2.45	–	–	–	2.16	2.41
AACUUUGCUAAUAAUCGCAAG [Fam3.1 aminoacylation ribozyme variant]	3.06	2.71	1.96	1.96	2.04	1.93
AACUUUGCUAAUAGGCGCAAG [Fam3.1 aminoacylation ribozyme variant]	3.02	1.96	1.7	2.05	1.79	2.36
AACUUUGCUAAUAGUGGCAAG [Fam3.1 aminoacylation ribozyme variant]	1.37	1.11	0.764	0.919	1.44	1.07
AACUUUGCUAAUAGUUGCAAG [Fam3.1 aminoacylation ribozyme variant]	3.03	–	–	–	–	2.21
AACUUUGCUAAUAUUCGCAAG [Fam3.1 aminoacylation ribozyme variant]	1.42	1.75	1.51	1.65	1.94	1.76
AAGAUUGCUAAUAGUCGCAAU [Fam3.1 aminoacylation ribozyme variant]	2.37	1.14	1.85	1.41	1.37	1.54
AAGAUUGCUAAUAGUCGCGAG [Fam3.1 aminoacylation ribozyme variant]	1.27	1.1	1.94	1.44	1.1	1.3
AAGAUUGCUAAUAUUCGCAAG [Fam3.1 aminoacylation ribozyme variant]	1.44	2.51	1.42	1.5	1.58	2.02
AAGAUUGCUAAUGGUCGCAAG [Fam3.1 aminoacylation ribozyme variant]	1.11	1.06	1.51	1.14	1.07	1.21
AAGAUUGCUAGUAGUCGCAAG [Fam3.1 aminoacylation ribozyme variant]	1.28	1.48	1.83	1.61	1.89	1.36
AAGCUUGCUACUAGUCGCAAG [Fam3.1 aminoacylation ribozyme variant]	–	2.23	2.37	–	2.03	2.45
AAGCUUGCUGAUAGUCGCAAG [Fam3.1 aminoacylation ribozyme variant]	4.23	3.03	2.4	2.45	–	2.19
AAGUUGGCUAACAGUCGCAAG [Fam3.1 aminoacylation ribozyme variant]	2.15	2.26	–	–	–	2.05
ACGCUUGCUAAUAGUCGCAAG [Fam3.1 aminoacylation ribozyme variant]	5.67	2.88	2.29	–	–	2.28
AUUAACCUGGUCCUCGAGUGA [Fam2.1 aminoacylation ribozyme variant]	19.7	4.11	3.92	–	4.42	2.3

Sequence	self-aminoacylation (biotinyl-Phe-oxazolone)	self-aminoacylation (biotinyl-Trp-oxazolone)	self-aminoacylation (biotinyl-Met-oxazolone)	self-aminoacylation (biotinyl-Val-oxazolone)	self-aminoacylation (biotinyl-Leu-oxazolone)	self-aminoacylation (biotinyl-Ile-oxazolone)
AUUACACUCGUCAUCGAGUGA [Fam2.1 aminoacylation ribozyme variant]	18	4.43	3.51	–	3.87	2.13
AUUACCCUGGUCAUCGCUUGA [Fam2.1 aminoacylation ribozyme variant]	10.7	3.08	2.25	–	–	2.09
AUUCACAUAGGUCAUCUGGUG [Fam2.2 aminoacylation ribozyme variant]	15.7	3.03	2.89	–	3.86	2.1
AUUCACCUAAGUCAUUGGGUG [Fam2.2 aminoacylation ribozyme variant]	20.5	2.6	3.48	–	3.65	2.31
AUUCACCUAGGUCAUCGAGUU [Fam2.2 aminoacylation ribozyme variant]	7.47	–	3.3	2.25	4.79	2.69
AUUCACCUAGGUCUUCGGGGG [Fam2.2 aminoacylation ribozyme variant]	12	–	2.43	3.04	3.62	3.04
AUUCACCUAUUUCAUCGGGUG [Fam2.2 aminoacylation ribozyme variant]	8.43	3.17	2.93	2.02	3.49	–
AUUCACCUGGGUCAUCGGGCG [Fam2.2 aminoacylation ribozyme variant]	–	2.91	4.48	4.75	5.26	3.58
AUUCACCUUGGUCAUCUGGUG [Fam2.2 aminoacylation ribozyme variant]	17.9	2.75	2.82	2.16	3.3	–
AUUCACUUAGGUCAUCGGGUA [Fam2.2 aminoacylation ribozyme variant]	–	–	2.38	2.15	–	2.29
AUUGCCCUGGUCAUCGAGUGC [Fam2.1 aminoacylation ribozyme variant]	11.6	4.08	4.79	2.32	4.73	–
AUUUACCUAGUUCAUCGGGUG [Fam2.2 aminoacylation ribozyme variant]	15.2	2.25	2.61	–	3.25	2.13
CAACACUUCAAGCAAUCGGGC [Fam1B.1 aminoacylation ribozyme variant]	4.52	–	2.2	2.23	2.2	2.15
CAGUUUGCUAAUAGUCGCAAU [Fam3.1 aminoacylation ribozyme variant]	2	–	–	–	–	2.06
CAGUUUGCUAAUAGUCGCGAG [Fam3.1 aminoacylation ribozyme variant]	12.2	3.86	–	2.01	3.12	2.33
CCACACAUCAAGCAAUCGGGC [Fam1B.1 aminoacylation ribozyme variant]	–	2.1	–	–	–	2.01
CCACACCUCAAGCAAUCGCUC [Fam1B.1 aminoacylation ribozyme variant]	9.63	3.13	2.85	–	2.72	2.12
CCACACUUCAAGCCAUCCGUC [Fam1B.1 aminoacylation ribozyme variant]	–	–	–	–	–	2.04
CCACACUUCAUGCAAUCGGCC [Fam1B.1 aminoacylation ribozyme variant]	14.2	–	2.9	2.8	2.72	2.44
CCACCCUUCAAGCAAUCGGGC [Fam1B.1 aminoacylation ribozyme variant]	15.4	2.65	–	3.02	–	2.06
CUACUUCAAACACUCGGGCUG [Fam1A.1 aminoacylation ribozyme variant]	–	–	–	2.2	2.06	2.18
CUUACCGUGGUCAUCGAGUGA [Fam2.1 aminoacylation ribozyme variant]	10.3	3.87	3.29	2.68	2.59	–
CUUACCUUGGUCAUCGAGUGA [Fam2.1 aminoacylation ribozyme variant]	3.62	3.9	3.25	2.66	2.99	–
GCACACUUCAAACAAUCGGUC [Fam1B.1 aminoacylation ribozyme variant]	92.2	59	2.13	2.19	2.99	–
GCACACUUCAAGCAACCGGUC [Fam1B.1 aminoacylation ribozyme variant]	2.92	4.35	–	2.43	2.46	2.31
